The values that follow come from patent publication US8663916B2 (priority 2006, dated 2014).

Like-named read-outs stand apart in the source and are kept apart here.

Data set [1] deals with ATCC 10231 C. albicans cells. Kind of data set: cell growth inhibition assay in M-H liquid medium (turbidity, filament sedimentation, microscopy). Conditions: for spores under microscope: 2 ul treated medium on a slide, Ph-CA1 10 ug/ml, amphotericin B 2 ug/ml, FIG. 5. It is filed as cell-based, Candida albicans. From the text:
FIG. 4 depicts the inhibition effects of Ph-CA against the growth of ATCC 10231 C. albicans cells in M-H liquid medium. The amount of sedimentary fungal filaments at the bottom of flasks indicated the inhibition effects of treatment agents. (A) Control, (B) fluconazole, (C) amphotericin B, (D) Ph-SA, (E) Ph-CA2 produced by pCHCCA2 plasmid and (F) Ph-CA1.
FIG. 5 depicts the inhibition effects of Ph-CA against the growth of C. albicans cells in liquid medium. The amount of spores and filaments of ATCC 10231 C. albicans cells indicated the inhibition effects. (A) Control, (B) fluconazole, (C) amphotericin B, (D) Ph-SA, (E) Ph-CA2 (F) Ph-CA1. X400.
In vitro cell growth inhibition assays were performed in 100 ml Klett flasks containing 10 ml of M-H medium which were monitored turbimetrically with a BioRad 550 microplate reader at OD595 nm every 60 min. The filament (mycelium) precipitation at the bottom of flask was counted with a digital photo-recorder every 6 hrs. Cells were inoculated to an initial cell density of about 2.5×10^5 CFU/ml and shaken at 200 rpm on an orbital shaker at 35° C. Sedimentary fungal filaments appeared in about 36 hrs growing.
Ph-CA1 and Ph-CA2 were added at the start of the culture. The same amount of borate stock solution (50 mM borate, PH9.0), Ph-SA (pheromonicin constructed by colicin Ia and staphylococcal pheromone AgrD1)(10 ug/ml) and several antibiotics preparations (2 ug/ml amphotericin B, 6 ug/ml fluconazole) were used as controls. All assays were expressed in turbidometric absorbance units measured at 595 nm and pictures of the filament sedimentation at the bottom of the flask were taken.

Data set [2] has as its system Magnaporthe grisea. It is filed as in vivo, rice (seed, gangyou 725). The following applies: sprayed once at head stage: tricyclazole 1 mg/ml, Ph-CA1 2 ug/ml.
Data set [3] has as its system Magnaporthe grisea. It is filed as in vivo, rice (seed, gangyou 725). The following applies: for Grades of impaired leaves 0 (number of leaves) / Grades of impaired leaves 1 (number of leaves) / Grades of impaired leaves 3 (number of leaves) / Grades of impaired leaves 5 (number of leaves) / Incident rate / Infected index / Protecting efficacy: seven days after treatment, sprayed twice: tricyclazole 0.5 and 1 mg/ml, Ph-CA1 1 and 2 ug/ml, 200 leaves.

Data set [4] is described as follows: repeated intraperitoneal dosing in mice, bodyweight and histology. The following applies: 200 ug/mouse/day intraperitoneally for 20 days. It is filed as in vivo, KungMing mice. Here is the method: KungMing mice (n=10), half male and half female, weighing 18-22 g were injected intraperitoneally with Ph-CA1 (200 ug/mouse/day) for 20 days. The bodyweight of all mice was increased.

The subject of data set [5] is Cryptococcus neoformans (Huaxi 30168 strain). It is filed as cell-based.
Data set [6] deals with C. albicans (ATCC 10231). Briefly: systemic candidiasis in mice, survival. It is filed as in vivo, KungMing mice. Here is the method: KungMing mice, half male and half female, weighing 18-22 g were injected intraperitoneally with 0.5 ml of C. albicans (ATCC 10231), 10^8 CFU/ml. One hour after C. albicans injection, mice were injected intraperitoneally with 0.9% saline […] alone as control (n=10) (C), or with amphotericin B (n=10, 1 ug/gm/day) (B), or with Ph-CA1 (n=10, 5 ug/gm/day) (A) daily for 14 days. The number of surviving animals was determined every 24 hours (FIG. 11).
KungMing mice, half male and half female, weighing 18-22 g were injected intraperitoneally with 0.7 ml of C. albicans (ATCC 10231), 10^8 CFU/ml. One hour after C. albicans injection, mice were injected in the tail vein with 0.9% saline alone as control (n=10) (C), or with amphotericin B (n=10, 1 ug/gm) (B), or with Ph-CA1 (n=10, 5 ug/gm) (A). The mice were then injected intraperitoneally with 0.9% saline alone, or with amphotericin B (n=10, 1 ug/gm), or with Ph-CA1 (n=10, 5 ug/gm) each day. The number of surviving animals was determined every 24 hours (FIG. 12).

Data set [7] relates to ATCC 10231 C. albicans cells. Kind of data set: fluorescent imaging with FITC/propidium iodide. It is filed as cell-based, Candida albicans. The following applies: 10 ug/ml, 24 hrs; 50 nM FITC/600 nM propidium iodide. Here is the method: FIG. 6 depicts the fluorescent imaging of ATCC 10231 C. albicans cells treated by Ph-CA1 and stained with 50 nM FITC/600 nM propidium iodide. […] X400.

For data set [8], the system named is Candida albicans (ATCC 10231). It is filed as cell-based.
Data set [9] deals with Fusarium moniforme (ACCC 30133 strain). It is filed as cell-based.
The test system of data set [10] is Cryptococcus neoformans, Aspergillus flavus, Magnaporthe grisea and Fusarium moniforme cells. It is filed as cell-based. Conditions: on a molar basis.
The subject of data set [11] is Aspergillus flavus (Huaxi 30255 strain). It is filed as cell-based.
Data set [12] concerns Magnaporthe grisea (ACCC 30320 strain). It is filed as cell-based. Conditions: PDA solid medium; 100 ul Ph-CA1 25 and 50 ug/ml; FIG. 9.

In the case of `OC(Cn1cncn1)(Cn1cncn1)c1ccc(F)cc1F` [Fluconazole, fluconazole, reference compound], in data set [1] (6 ug/ml, M-H liquid medium), the “effect on growth of C. albicans” value is listed as “no effect”.

Take `C[C@@H]1[C@H](O)[C@@H](C)/C=C/C=C/C=C/C=C/C=C/C=C/C=C/[C@H](O[C@@H]2O[C@H](C)[C@@H](O)[C@H](N)[C@@H]2O)C[C@@H]2O[C@](O)(C[C@@H](O)C[C@@H](O)[C@H](O)CC[C@@H](O)C[C@@H](O)CC(=O)O[C@H]1C)C[C@H](O)[C@H]2C(=O)O` [amphotericin B, reference compound]: the “effect on growth of C. albicans” value in data set [1] (2 ug/ml, M-H liquid medium) is on record as “completely inhibited”. The spores under microscope result in [1] is given as “scarcely observed”.

`Cc1cccc2sc3nncn3c12` [Tricyclazole, tricyclazole, reference compound]: in [2], the Damage rate is 1.63%, the “Grades of impaired ears 0 (number of ears)” value is on record as 184, the “Grades of impaired ears 1 (number of ears)” value was found to be 16 and the “Grades of impaired ears 3 (number of ears)” value stood at 9. For the same molecule, in [2], the “Grades of impaired ears 5 (number of ears)” value is 2, the “Grades of impaired ears 7 (number of ears)” value was 2, the “Grades of impaired ears 9 (number of ears)” value was found to be 0 and the Impaired ears rate was 13.62%. This molecule gave an Infected index in data set [2] of 3.5. Besides, in data set [3], the “Grades of impaired leaves 0 (number of leaves)” value was found to be 172, the “Grades of impaired leaves 1 (number of leaves)” value was found to be 10, the “Grades of impaired leaves 3 (number of leaves)” value came out at 12 and the “Grades of impaired leaves 5 (number of leaves)” value is 6. Further, in data set [3], the Incident rate is 14, the Infected index amounted to 4.22 and the Protecting efficacy came out at 75.83.

B1: Ph-CA2: fusion peptide of colicin Ia with Candida albicans alpha-mating pheromone n-terminal to the colicin Ia; SEQ ID NO:7; from plasmid pCHCCA2 (protein)
chain: GFRLYNFGYFEPGKDAINFTTEFLKSVSEKYGAKAEQLAREMAGQAKGKKIRNVEEALKTYEKYRADINKKINAKDRAAIAAALESVKLSDISSNLNRFSRGLGYAGKFTSLADWITEFGKAVRTENWRPLFVKTETIIAGNAATALVALVFSILTGSALGIIGYGLLMAVTGALIDESLVEKANKFWGI
modifications: Amino acid sequence of Ph-CA2
notes: fusion peptide of colicin Ia with Candida albicans alpha-mating pheromone n-terminal to the colicin Ia; from plasmid pCHCCA2
Take B1: in [1] (10 ug/ml, M-H liquid medium), the “inhibition effect relative to that of Ph-CA1” value is listed as “about 30%”. Moreover, the “antifungal effect on Candida albicans in vitro” value in data set [1] is listed as “almost had no effect”.

B2: Ph-CA1: fusion peptide of colicin Ia with Candida albicans alpha-mating pheromone c-terminal to the colicin Ia; SEQ ID NO:5; from plasmid pCHCCA1 (protein)
chain: DAINFTTEFLKSVSEKYGAKAEQLAREMAGQAKGKKIRNVEEALKTYEKYRADINKKINAKDRAAIAAALESVKLSDISSNLNRFSRGLGYAGKFTSLADWITEFGKAVRTENWRPLFVKTETIIAGNAATALVALVFSILTGSALGIIGYGLLMAVTGALIDESLVEKANKFWGIGFRLYNFGYFEPGK
modifications: Amino acid sequence of Ph-CA1
notes: fusion peptide of colicin Ia with Candida albicans alpha-mating pheromone c-terminal to the colicin Ia; from plasmid pCHCCA1
Consider B2, for which the bodyweight result in [4] is recorded as “increased”. In addition, the “microscopic findings in livers, kidneys or spleens” value in data set [4] (hematoxylin and eosin) is listed as “no microscopic evidence of necrosis or inflammation”. Further, the antifungal effects entry in data set [5] was “definite antifungal effects”. Further, in data set [6] (in vivo), the “antifungal effect on Candida albicans in vivo” value is “definite antifungal effect”. Moreover, in data set [6] (on a molar basis, Ph-CA1 5 ug/gm, amphotericin B 1 ug/gm), the “in vivo antifungal activity against systemic candidiasis relative to amphotericin B” value is “at least twenty times greater”. In [2], the Damage rate amounted to 0.53%, the “Grades of impaired ears 0 (number of ears)” value stood at 218, the “Grades of impaired ears 1 (number of ears)” value amounted to 19 and the “Grades of impaired ears 3 (number of ears)” value was determined as 5. In data set [2], the “Grades of impaired ears 5 (number of ears)” value is 0, the “Grades of impaired ears 7 (number of ears)” value was determined as 0, the “Grades of impaired ears 9 (number of ears)” value worked out at 0 and the Impaired ears rate is reported as 9.92%. Moreover, in data set [2], the Infected index was found to be 1.56. Moreover, the “total effects against rice blast disease relative to tricyclazole” value in [3] (concentration and molar basis taken together, both in vivo protecting assays (Tables I and II)) is on record as 10^4 to 10^5 times. In addition, the “protecting effects relative to tricyclazole” value in [3] (on a molar basis, both in vivo protecting assays (Tables I and II)) is “three hundred times greater”. In data set [3], the “Grades of impaired leaves 0 (number of leaves)” value worked out at 67, the “Grades of impaired leaves 1 (number of leaves)” value came out at 12, the “Grades of impaired leaves 3 (number of leaves)” value worked out at 13 and the “Grades of impaired leaves 5 (number of leaves)” value was 8. For the same molecule, in data set [3], the Incident rate amounted to 16.5, the Infected index turned out to be 5.05 and the Protecting efficacy is 70.94. Also, the “cell membrane damage (propidium iodide entry, cells stained red)” value in [7] is on record as “cells became red”. Moreover, the inhibition zone entry in data set [8] is listed as “inhibition-zone”. The antifungal effects entry in data set [9] is reported as “definite antifungal effects”. Besides, the “antifungal effects relative to known antifungal antibiotics” value in [10] is reported as “one hundred to one thousand times greater”. The antifungal effects result in data set [11] is “definite antifungal effects”. Further, the “effect on growth of C. albicans” value in data set [1] (10 ug/ml, M-H liquid medium) is given as “completely inhibited”. In addition, in [1], the spores under microscope result is “scarcely observed” and the “antifungal effect on Candida albicans in vitro” value was “definite antifungal effect”. Besides, the “inhibitory effect relative to amphotericin B” value in data set [1] (on a molar basis, Ph-CA1 70 kDa, amphotericin B about 0.9 kDa) was “approximately ten times greater”. Further, the antifungal effects result in data set [12] is on record as “definite antifungal effects”.
